For this data set, the target named is MazE antitoxin with the Thrombin-recognition sequence LVPRGS in place of VDGK at positions 38 to 41 (UniProt P0AE72).

Take Biothinylated Thrombin (Novagen): the “removal of the MazE band on SDS-PAGE after overnight Thrombin treatment (0.01 to 0.08 units)” value is recorded as “the residual MazE protein was successfully removed from the purified MazF sample by Thrombin treatment (lanes 2 to 5)”.

The record behind these values is patent US20100196951.
